In article PMC4073527 one finds stoichiometry N data, which are given here for one substance.

This assay has as its target LRIM1 (An. gambiae). Nature of the assay: non-reducing SDS-PAGE western blot. A general note: Immunoblotting shows a protein as a band on a membrane.

The stoichiometry N is a count of units in the complex or per binding partner. The substance LRIM1 (natural protein) had a stoichiometry N of 2.
